The source of these data is a protein production outcome set (Wang et al. 2014).

The series can be described thus: label from the status in PepcDB records.

For the sequence “MKPLKEVVGAYLALSDAQRQLVAGEYDEAAANCRRAMEISHTMPPEEAFDHAGFDAFCHAGLAEALAGLRSFDEALHSADKALHYFNRRGELNQDEGKLWISAVYSRALALDGLGRGAEAMPEFKKVVEMIEERKGETPGKERMMEVAIDRIAQLGAS”, the protein production result is “not failed”.

Turning to “MKPSLRIYRYPPPPSQRTPCALTIGNFDGVHLGHQAILARVRQEARARGLVPAVMTFEPHPREYFATLNRRPELAPTRISGLRDKLQALAAAGIEQVAVERFDARLAEMSANAFIEDLLVAGLQTRWLLVGEDFRYGHKRSGDIDLLREAGLAHGFEVCTLADITDRQGHRISSSEVRTALAVGDLDRAAQLLGQPFHISGHVIHGRKLGRELGFPTMNLRVAPRCATRSGIYVVRVLGLQDRPLPAVASLGVRPTVEDRGRVLLEAHLLDESLDAYGKLVRVEFLHKLRDEEKFADLPSLTAAIAQDAQNARAYFAVHGL”, the protein production entry is reported as “failed”.

Turning to “MKPSVSITGEQEAHKVAAIFETETDANGVARVLSQETSLDHEQVIVVSPQDQHPGEELEPENQGIWQTLVRSHLWLGIGGAVAGFIVFLILSAIGVGFIAQNGVVAAAVLAALGLILGLLVAGGVTLRPDHTPYVAKAQSALKEGKYVLTVHASSSEQLKEATTVLKNRNVRLVRTI”, the protein production entry is recorded as “failed”.

On to “MKPVKPPRINGRVPVLSAQEAVNYIPDEATLCVLGAGGGILEATTLITALADKYKQTQTPRNLSIISPTGLGDRADRGISPLAQEGLVKWALCGHWGQSPRISDLAEQNKIIAYNYPQGVLTQTLRAAAAHQPGIISDIGIGTFVDPRQQGGKLNEVTKEDLIKLVEFDNKEYLYYKAIAPDIAFIRATTCDSEGYATFEDEVMYLDALVIAQAVHNNGGIVMMQVQKMVKKATLHPKSVRIPGYLVDIVVVDPDQSQLYGGAPVNRFISGDFTLDDSTKLSLPLNQRKLVARRALFEMRKGAVGNVGVGIADGIGLVAREEGCADDFILTVETGPIGGITSQGIAFGANVNTRAILDMTSQFDFYHGGGLDVCYLSFAEVDQHGNVGVHKFNGKIMGTGGFIDISATSKKIIFCGTLTAGSLKTEIADGKLNIVQEGRVKKFIRELPEITFSGKIALERGLDVRYITERAVFTLKEDGLHLIEIAPGVDLQKDILDKMDFTPVISPELKLMDERLFIDAAMGFVLPEAAH”, for which the protein production entry is “not failed”.

On to “MKPVKVGICGLGTVGGGTFNVLERNAEEIARRAGRGIEVAQIAARRPNPKCDTGATPITADIFDVACNPEIDVVVELIGGYTLAHELVLKAIENGKHVVTANKALIAVHGNEIFAKAREKGVIVAFEAAVAGGIPVIKAIREGLSANRINWLAGIINGTGNFILSEMREKGRTFPDVLAEAQALGYAEADPTFDVEGIDAAHKLTILASIAFGIPLQFDKAYTEGISKLTSADVNYADALGYRIKHLGVARRTESGFELRVHPTLIPSDRLIANVNGVMNAVMVNGDAVGSTLYYGAGAGMEPTASSVVADLVDVVRAMTSDPENRVPHLAFQPDALSDHPILPIEACESAYYLRIQAKDHPGVLAQVATILSERGINIESIMQKEAEEQDGLVPMILVTHRVIEQRINDAIAALEALEGVSGPVVRIRVEQL”, for which the protein production result is on record as “not failed”.

In the case of “MKQESPRLENTTPVEEKMTRSLLDHLTRLKPTRLVIFTSVFLSCLLLSLGFVFLQPATYQSYATLLTVAKTAIDQASREADIQHVAIQKQVLLGSELLTETADRLRKGDDAEAGINLTHAAIRDMLDVRPVDDTNLVEMVAEGNEPGLLPRLINTWIDVYLDARSAEIARSKGSTVEMMQEELVALTEKIQQKRLELEQFRQHNEIVSTERQDNEALARLKGLTDSLNKASEEEVKAKARLDTIRKSIERGQIVVPNEDTRTLSALERRAQELREQLEELDRQYTREYMALSPDLKVIPDKLRALEDEIQHIRRKGQTVVVSDAEQEYAAARQATRSIQEQLDQHRKKAAEFTARFTEHDALKSDLEELEQLYRDTQARLAQIEAQHTGKYPYVDVIERAFLPHHPIGPDYLWNAMIATLASLLLGLTAIWILEFLMHKEQEKLAIHLSGIHLHNQDNLPHSAFDVLPSTSVNLPRQPAQALEHTSMNGLTPQQIATLFQTANIREKQLLLLLLSGLTPDEITHLQQDDIDLEHNSLTVRSVPARTIPLHPVLAALYGKYGHCLTDPAGNRLNQEELEALLICLQIDADLSADNQISAEILRQTYILYLVRQGIRLGDLESVTGYISPTELSGYGTYAPAGTRYPVESVNLFYPIDYKQDV”, the protein production result was “failed”.

On to “MKQIRLLAQYYVDLMMKLGLVRFSMLLALALVVLAIVVQMAVTMVLHGQVESIDVIRSIFFGLLITPWAVYFLSVVVEQLEESRQRLSRLVQKLEEMRERDLSLNVQLKDNIAQL”, for which the protein production result is listed as “not failed”.

Regarding “MKQKFSSLFVLLVLLLTGLQVSAQSTPKPFDIEQPSLRVFLPAPELATGRAVVACPGGGYSGLAVNHEGYDWAPYFNKQGIALIVLKYRMPKGDRTLPISDAEAAMKMVRDSADVWNLNPNDIGIMGSSAGGHLASTIATHAPEALRPNFQILFYPVITMDKSFTHMGSHDNLLGKDASADLEKEFSNEKQVTKETPRAFIVYSDDDKVVPPANGVNYYLALNKKGVPSVLHIYPTGGHGWGIREDFLYKSEMQNELTSWLRSFKAPRKDAVRVACIGNSITFGAGIRNRSRDSYPSVLARMLGDSYWVKNFGVSARTMLNKGDHPYMNEPAYKNALAFNPNIVVIKLGTNDSKSFNWKYKADFMKDAQTMIDAFKGLPSQPKIYLCYPSKAYLTGDGINDDIISKEIIPMIKKLAKKNDLSVIDLHTAMDGMPELFPDRIHPNEKGAQVMAKAVYQSISTLK”, the protein production entry is “failed”.

As to “MKQKLVVMIAAVLILALTVSIASAEDQNDQTSLRSEQNDAFVAGDNLIDSSSVIKYGDPIGSYKNVTAYSNKGNGKYQCVEYVKRFYKEAMNVEPDWDGTGNAITYYTNAEAKGLVSYSNNGSVAPKPDDIIIFSPTDNGYGHVAIITEVGDKYIKIIEQNWNQENAFASLSLEKNGSKYYISPRGASKRPTEGWCRTPILNIISPTKKSFSLVGNYNNPNLLTVDAEVKSENVPITGLNKDNFTIEIGSKKVNDVTVSDVGEGKYKLSFNPPKQDSNGNYDLNVYVKYKKVTLSDSELNAVRYGEDNANANANVMLVIDRSGSMSGSPISSAKNSANLFIDYMEAEDMAGVVSFSSSARYDYHLATLTPEVKNSIKQKINSIYASGVTAIGSGMRYGLNDLLNYGDPNNPWAIVLLSDGYQNSGENPNNVIPSIKASNIQVYTVGLGPAVDQKLLGNIADQTGGKYYYSPTDSQLQEIYNDIVGKIIGWKTVFKRNVKMFIHERVPIAVPIDSAIDKVSFGIGWPGSNVDLVLYKPDGTLVDPSFADSDPTIEYLSGPTYKIYKVTDPESGMWNMELNATDMPAGGEDVYVTVLAESTLSMSLSTNKGQYNQGEVVKIIADLSDAGTQITGADVKVNVTLPDSSVEYLTLYDDGGHGDNGSQDGVYANYLVDTSLMGDYKVDVTSTGSLSDGSQFKRIEDTSFEIIQGISSISSIANLQSTNDITWINWTWTNPTGPNFSHTEIYLDGVFQANTSAEFFNATGLEPETEYTLSTHTVDISGNVNETWVNSTATTSAELVSDVKKPVIDSVNLFPANTTAGATINLSINATDDTAVTEVIAGDIQLIKTDDIWQGSITAPSSIGSYSLLIKAKDAAGNVAEASVPYRVVQLSGGANIAVSPRSSSIVAGNSVTLNIKVKNTQNIDDIFKVNITVSELPAANQANIDWFSWTEQSVKLRAGEEILLPLEVEVPDGTALGLKLFRANVNSETSVVTGFDTGYLKVV”, the protein production entry was “failed”.

Regarding “MKQKQFYFIYVFLLSMTFLGACSKDSPNELIPNTIVKIEIDKLPGKRIYFIGEELDVSDMTLKVFYSNETSEIVPVKKDEVTGFNSTVPENDQILEVHKGSFTVTFKIQVLINDIQAISIKTLPSKTVYTLGEPLSLSNMVLEINYADGTIKENSAPSADWVQGFNSSVPAQLQIVTLELDGKQVSFDVQILPVKVDGDKVVSVIDSDFTSITFPDGIRTIGSKAFENKNIKASELLCPASLSTIEQAAFAYCRNLKIVDLSHTSIKELPEEAFLFSGIKKIALPASLEIVGKEAFYGCTDLNVIDISHTSVKELQNGAFGKSGISSISLPSTFKIVGASAFIETKNLKELTLPEGSEVIDLEAFSGSSIQKVTLPNTIYHIDRSFYSCPELTTIETYGTRTTPSPVDRTAAIVSECFNHSPKLTVLKIPASIVKIGISALNKCQVKTLILPASVKALDFNAFGNAVSLDEISLMSPTMVTADYYPVPPGIQKIRVPQNLVETYKQNKAWKPFAEKIVAL”, the protein production result is recorded as “failed”.

For “MKQKRLTFLLLLISNLFCASAQKWYKPEIDLKVEELLSQMTVEEKLGYIGGIDWMYTKSIDRLGIHRMRMSDGPQGIGTKGKSTAYPATVTLAATWNENLAYQYGKALGRDCRARNINVILGPAVNIYRAPMCGRNFEYMGEDPYLTSRICVGYIKGVQDQGVMATVKHFVANNSDYDRNNISNDIDERTLNEIYFPAYKAAIQEAEVGAIMTSYNLMNGIYTTENPWLLKEVLRNQWGFKGLVMSDWGSTHYCVPAARSGLDLEMAGGEKMNPKDMAYYLKTGDVTMDMVDEKVRHILRILIAFGFKDGTEADKSIALDDPQSVETA”, the protein production result is recorded as “failed”.

In the case of “MKQLLEFIPLILFFAVYKLVGVQAAAITLVLATILQLILVRILFKKLETSQWIVGLSVIIFGILTAYFDDLAFLKWKVTIINGLFAAVLLISQYVFHKPVVKMLLAKELSLPTQVWNRLNLGWAIFFIICMLINIIISQLFSDDTWATFKTFGFTGLSLVAVIITGIYLYPYIKKLENNNEQK”, the protein production entry was “failed”.

With “MKQLTILGSTGSIGNSTLSVVRANPELFKVTALVAGRNVREMAQQCLEFSPRYAAMSDEHSAKSLRLLLAEQGSDTEVYSGETAACELAALDDVDQVMAAIVGIAGLPSTLAAIRAGKQVLLANKESLITCGKLFMDEVKRSRAQLLPIDSEHNAIFQSLPERIQRQLGYSSLNENGVSRIILTGSGGPFRETPLSQFSDVTPDQACAHPNWSMGRKISVDSATMMNKGLEYIEARWLFNASAEQIEVVLHPQSVIHSMVRYHDGSILAQMGTPDMRTPIAHAMAYPMRVSSGVAPLDFCKVGALTFTTPDYQRYPCLKLAIDACNAGQAATTALNAANEISVMAFLDSKIRFTDIEVINRTVVEGLLLSEPTSVEEVLVIDRKARDVAAQVIAKLNN”, the protein production entry is recorded as “not failed”.

In the case of “MKQMSITLIFIMAFTIIIHAVETSSYSIRLAGVRLKKIAVALSVVGMVLLISRTSNLLQAFLIGGIVDEAKLDSSIDLEHIIRLVLLSASIGTLLAIILYPTLTKLFGYVIQNFETDGSFIRMMKTNNIQKLKYTKKYVRFPKLEMIHRLRIGGIPKRIMLINMFATAIYTAGVLSALYASFLNPDYATNASTASGLVNGFATILLTVLLDPRIALLTERALQSENGAESMSKMYGWLMISRLFGTLLAQLLFVPGAYWILWIIELIH”, the protein production entry is recorded as “failed”.

“MKQNQQNKKSFEVQLTQLFLFTSLPLFFLLIGVMIYANISLYLILLTMLISSLVIVYSHSKLHQKSAYQFRSLSNLLDAMVQGDYSLRARISDGDEALNELVDSINSLSLRLNKQRIETTESQLLLTTVINHIDVAILALNENNELVLTNPAAKKLLQIPAEQQEFDLIESFSQFSQIAAMNSGNSQVMSLYFANQQGKFNVHLEEYRENGKPQKLVFITDVSTMLRSEERNAWQALVRVISHEINNSLSPIASISQSLRRLLARQEKLENHKEYLVEGLSIISQRSNSLTEFVNSYKQIASLPEPKKQPSSVLELVNKTVALYPDECIEVQNIDDITLVLDAVQFEQVLINLVKNAVEAVKSAGEAGKVAISGQVNGKVFSLSLADDGTGVSNLENLFVPFYSTKSKGSGIGLVLCRQIIEAHGGKITLTNRLGVSGCIATIELPL”: the protein production entry is given as “failed”.

For “MKQPTLAVIMTCHNRRNTTLACLQALYQQKNHFDVYLTDDGSTDGTAEFIKAEYPDVKIFQGDGNLFWVGGMHLAFGEAIKNQYDYYLWLNDDTFLEADALEKLLQVHENLAVEGYGQSIVVGSTQDPITKQATYGGAVKSKKWYSNKFEFLEPTSDVQKCDAMYGNCVLIPHSVTLKVGNIDTAFIHSLGDLDYALRARNLGLEHHHHHH”, the protein production result is “failed”.

With “MKQSKIIVAGIGPGSEQDITPAVLAAVREADVVVGYKYYFRFIRDFVRPDAECIDTGMKRERARAEQAFEYAEQGKTVCVISSGDAGIYGMTPLIYEMKRERQSNVEIIALPGI”, the protein production entry was “failed”.
